For one series, the target named is T1, RXRα LBD (Homo sapiens, UniProt P19793).
T1 construct: His10-tag with TEV site (N, cleaved yes); made in house; host or cells: E. coli T7 express (co-expressed with GroEL/ES)
T1 sequence (P19793 226-462): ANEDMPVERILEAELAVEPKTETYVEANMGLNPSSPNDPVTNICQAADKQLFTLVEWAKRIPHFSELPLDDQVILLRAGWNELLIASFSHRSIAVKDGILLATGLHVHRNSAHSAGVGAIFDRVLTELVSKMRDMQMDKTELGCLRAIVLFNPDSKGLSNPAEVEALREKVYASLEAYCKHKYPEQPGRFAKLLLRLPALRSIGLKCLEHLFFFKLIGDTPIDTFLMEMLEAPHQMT
Kind of series: LBD:LBD heterodimer formation HTRF assay, sGFP-PPAR LBD titrated against biotinylated RXRα LBD coupled to Tb-SA. In kind it is binding. As to conditions: sGFP-PPAR LBD titrated up to […]; 0.375 nM RXRα; no ligand; read-out: apparent Kd of heterodimer formation with RXRα LBD. On the technique in general: In TR-FRET formats the signal depends on donor and acceptor labels being close together.

The target in series [1] is T2, biotinylated CBP-1 cofactor peptide (CREB-binding protein coactivator motif 1) (N-terminal biotin).
T2 construct: coupled to Tb-streptavidin in the assay; also called CBP-1 peptide; CBP-derived peptide; source: bought: Eurogentec GmbH
T2 peptide: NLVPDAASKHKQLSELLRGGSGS
Kind of series: AlphaScreen or HTRF; as a27, with SR11237 (up to 100 μM) titrated together with unlabeled RXRα total mutant LBD (up to 8 μM); referenced to isolated sGFP-PPARγ LBD activated by rosiglitazone. As to conditions: both partners purified. (In Alpha technology, singlet oxygen from a donor bead excites a nearby acceptor bead.)

Series [2] deals with the molecule itself. The experiment in a line: SEC; size exclusion chromatography during purification; 16/600 Superdex75 (and 16/600 Superdex200 for sGFP-RXRα) in 25 mM Hepes pH 7.5, 150 mM KF, 10% glycerol, 5 mM DTT. A general note: Size exclusion chromatography separates by hydrodynamic size, large species first.
The target of series [3] is T3, biotinylated RXRα LBD (N-terminal Avi-tag) (human, UniProt P19793-1 226-462, biotin on the Lys residue in the Avi-tag).
T3 chain: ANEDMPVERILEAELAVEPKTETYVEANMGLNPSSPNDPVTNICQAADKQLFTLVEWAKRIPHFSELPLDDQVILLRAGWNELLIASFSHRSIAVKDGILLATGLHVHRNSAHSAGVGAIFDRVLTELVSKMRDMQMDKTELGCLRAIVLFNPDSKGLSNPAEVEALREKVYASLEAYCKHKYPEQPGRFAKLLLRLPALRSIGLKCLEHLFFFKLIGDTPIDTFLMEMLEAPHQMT
The experiment in a line: FRET.

A further series addresses T4, sGFP-PPARα LBD (human, UniProt Q07869-1 198-468).
T4 construct: PPARα LBD, human, UniProt Q07869-1, residues 198-468; source: E. coli T7 express, coexpressed with GroEL/ES, purified (Ni IMAC, TEV, reverse IMAC, SEC); not shown: His10, N-terminal, cleaved; sGFP, N-terminal, kept
T4 sequence (looked up): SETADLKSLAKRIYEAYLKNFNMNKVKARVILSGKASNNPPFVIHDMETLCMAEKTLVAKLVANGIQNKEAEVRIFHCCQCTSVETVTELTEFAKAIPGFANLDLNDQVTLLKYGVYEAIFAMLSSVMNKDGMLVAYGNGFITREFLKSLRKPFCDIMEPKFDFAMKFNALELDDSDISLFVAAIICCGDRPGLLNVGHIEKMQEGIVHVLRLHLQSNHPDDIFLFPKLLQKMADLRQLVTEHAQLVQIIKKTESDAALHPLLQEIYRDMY
Kind of series: AlphaScreen or HTRF; LBD:LBD dimer formation; biotinylated RXRα LBD (0.375 nM) coupled to Tb-SA (0.75 nM) as FRET donor; sGFP-PPAR LBD titrated up to 4.8 μM, total sGFP kept constant with free sGFP; no ligand; HTRF assay buffer with 0.1% CHAPS and 1% DMSO; 1 h at RT; apparent Kd from the inflection point. Particulars: both partners purified.

A further series addresses T5, sGFP-PPARβ/δ LBD (human, UniProt Q03181-1 170-441).
T5 construct: PPARβ/δ LBD, human, UniProt Q03181-1, residues 170-441; also called PPARδ; source: E. coli T7 express, coexpressed with GroEL/ES, purified (Ni IMAC, TEV, reverse IMAC, SEC); not shown: His10, N-terminal, cleaved; sGFP, N-terminal, kept
T5 sequence (looked up): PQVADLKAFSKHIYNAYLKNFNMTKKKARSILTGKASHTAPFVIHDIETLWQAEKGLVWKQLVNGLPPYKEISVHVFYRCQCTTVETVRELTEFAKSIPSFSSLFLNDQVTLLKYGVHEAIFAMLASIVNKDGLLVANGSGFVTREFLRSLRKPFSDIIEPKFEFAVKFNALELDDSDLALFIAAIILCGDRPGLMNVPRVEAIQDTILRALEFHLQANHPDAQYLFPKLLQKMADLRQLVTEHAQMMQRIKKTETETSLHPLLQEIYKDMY
Described as above. As to conditions: both partners purified.

Experimental findings from article PMC8258697 (The Journal of Biological Chemistry, 2021) are described below.

Where “and” joins values, the source holds several entries; their conditions need not be identical. Identical values can stand only once.

B1: PPARδ: PPARδ LBD as fusion protein with N-terminal sGFP (protein)
chain: PQVADLKAFSKHIYNAYLKNFNMTKKKARSILTGKASHTAPFVIHDIETLWQAEKGLVWKQLVNGLPPYKEISVHVFYRCQCTTVETVRELTEFAKSIPSFSSLFLNDQVTLLKYGVHEAIFAMLASIVNKDGLLVANGSGFVTREFLRSLRKPFSDIIEPKFEFAVKFNALELDDSDLALFIAAIILCGDRPGLMNVPRVEAIQDTILRALEFHLQANHPDAQYLFPKLLQKMADLRQLVTEHAQMMQRIKKTETETSLHPLLQEIYKDMY
modifications: left off: His10, N-terminal, cleaved | sGFP, N-terminal, kept
Consider B1, for which, in the series with RXRα LBD, the Kd is 363 nM.

B2: sGFP-PPARγ LBD:RXRα total mutant LBD (unlabeled) heterodimer (complex, human)
chain 1: PESADLRALAKHLYDSYIKSFPLTKAKARAILTGKTTDKSPFVIYDMNSLMMGEDKIKFKHITPLQEQSKEVAIRIFQGCQFRSVEAVQEITEYAKSIPGFVNLDLNDQVTLLKYGVHEIIYTMLASLMNKDGVLISEGQGFMTREFLKSLRKPFGDFMEPKFEFAVKFNALELDDSDLAIFIAVIILSGDRPGLLNVKPIEDIQDNLLQALELQLKLNHPESSQLFAKLLQKMTDLRQIVTEHVQLLQVIKKTETDMSLHPLLQEIYKDLY
chain 2: TSSANEDMPVERILEAELAVEPKTETYVEANMGLNPSSPNDPVTNICQAADKQLFTLTEWAERIPHFSELPLDDQTILLRAGWNELLIASFSHRSIAVKDGILLATGLHVHRNSAHSAGVGAIFDRVLTELVSKMRDMQMDKTELGCLRAIVLFNPDSKGLSNPAEVEALREKVYASLEAYCKHKYPEQPGRFAKLLLRLPALRSIGLKCLEHLFFFKLIGDTPIDTYLMRMLEAPHQMT
notes: PPARγ isoform 2 LBD, human, UniProt P37231-1, residues 234-505; RXRα LBD, human, residues 223-462, five AF-2 mutations; also called LBD:LBD heterodimer with RXRα; source: mixed from the purified E. coli proteins (100 nM sGFP-PPARγ LBD, RXRα total mutant LBD titrated); not shown: His10, N-terminal, cleaved; sGFP, N-terminal, kept; MBP, N-terminal, cleaved; His8, N-terminal, cleaved
On to B2, for which, in series [1], the “CBP-1 recruitment relative to full activation of monomeric PPARγ with rosiglitazone (%)” value came out at 26%.

B3: sGFP-RXRα LBD wildtype (domain or fragment, human, UniProt P19793-1 226-462, looked up)
chain: ANEDMPVERILEAELAVEPKTETYVEANMGLNPSSPNDPVTNICQAADKQLFTLVEWAKRIPHFSELPLDDQVILLRAGWNELLIASFSHRSIAVKDGILLATGLHVHRNSAHSAGVGAIFDRVLTELVSKMRDMQMDKTELGCLRAIVLFNPDSKGLSNPAEVEALREKVYASLEAYCKHKYPEQPGRFAKLLLRLPALRSIGLKCLEHLFFFKLIGDTPIDTFLMEMLEAPHQMT
notes: retinoid X receptor alpha (RXRα) LBD, human, UniProt P19793-1, residues 226-462; only the fractions eluting as monomer in the second SEC were used; also called RXRα as a fusion protein with sGFP; RXRα wt; source: E. coli T7 express, coexpressed with GroEL/ES, purified (Ni IMAC, TEV, two SEC steps); not shown: His10, N-terminal, cleaved; sGFP, N-terminal, kept
As usually defined, the stoichiometry N is a count of units in the complex or per binding partner. For the molecule B3, the “stoichiometry N” value in series [2] was 2. In series [3], the Kd was 50 nM and 28 nM.

B4: biotinylated RXRα LBD (N-terminal Avi-tag) (domain or fragment, human, UniProt P19793-1 226-462, looked up)
chain: ANEDMPVERILEAELAVEPKTETYVEANMGLNPSSPNDPVTNICQAADKQLFTLVEWAKRIPHFSELPLDDQVILLRAGWNELLIASFSHRSIAVKDGILLATGLHVHRNSAHSAGVGAIFDRVLTELVSKMRDMQMDKTELGCLRAIVLFNPDSKGLSNPAEVEALREKVYASLEAYCKHKYPEQPGRFAKLLLRLPALRSIGLKCLEHLFFFKLIGDTPIDTFLMEMLEAPHQMT
modifications: biotin on the Lys residue in the Avi-tag
notes: retinoid X receptor alpha (RXRα) LBD, human, UniProt P19793-1, residues 226-462; coupled to Tb-streptavidin in the assay; also called biotin-labeled RXRα LBD; source: E. coli T7 express, coexpressed with GroEL/ES, purified (Ni IMAC, TEV and BirA, monomeric avidin, SEC); not shown: His10, N-terminal, cleaved; Avi-tag, N-terminal, kept
For the molecule B4, the figures for the Kd in the series with sGFP-PPARα LBD and in the series with sGFP-PPARβ/δ LBD were 72 nM and 363 nM, respectively.

B5: PPARα: PPARα LBD as fusion protein with N-terminal sGFP (protein)
chain: SETADLKSLAKRIYEAYLKNFNMNKVKARVILSGKASNNPPFVIHDMETLCMAEKTLVAKLVANGIQNKEAEVRIFHCCQCTSVETVTELTEFAKAIPGFANLDLNDQVTLLKYGVYEAIFAMLSSVMNKDGMLVAYGNGFITREFLKSLRKPFCDIMEPKFDFAMKFNALELDDSDISLFVAAIICCGDRPGLLNVGHIEKMQEGIVHVLRLHLQSNHPDDIFLFPKLLQKMADLRQLVTEHAQLVQIIKKTESDAALHPLLQEIYRDMY
modifications: left off: His10, N-terminal, cleaved | sGFP, N-terminal, kept
Regarding B5, in the series with RXRα LBD, the Kd came to 72 nM.
